Legend:
[1] = target: pepIII peptide (PepIII portion of EGFRvIII), 13-mer …; experiment: eluted supernatant mixed with pepIII-conjugated beads and free pepIII competitor in the second round, flow cytometry
[2] = target: pepIII peptide (PepIII portion of EGFRvIII), 13-mer …; experiment: eluted supernatant of unblocked sample rebound to pepIII-conjugated beads, flow cytometry
[3] = target: pepIII peptide (PepIII portion of EGFRvIII), 13-mer …; experiment: eluted supernatant of sample blocked with free pepIII in the first round of binding, rebound to pepIII-conjugated beads, flow cytometry

## L8A4 anti-pepIII monoclonal antibody
[1]
  antibody level (FIG. 2, fluorescence): 2.57
[2]
  antibody level (FIG. 2, fluorescence): 31.2
[3]
  antibody level (FIG. 2, fluorescence): 2.21
